Data published in publication PMC10624691, “HSPA8 acts as an amyloidase to suppress necroptosis by inhibiting and reversing functional amyloid formation” (Cell Research, 2023).
Changes are numbered by the printed parent chain. One block for each binder: values may come before it.

Tests used:
[1] = molecular target: the molecule itself; assay: seeded fibril growth assay (ThT fluorescence, negative-stain EM, pelleting); sonicated fibril seeds (0.5 uM) with monomers (5 uM), with or without HSPA8 (5 uM); 30 C by the methods, 37 C for 2 h by the legend of Fig. 3c; fibrils pelleted at 12,000 g
[2] = molecular target: T1, recombinant hHSPA8-CT (C-terminal fragment 385-647, SBD; 6xHis-Sumo) (human, UniProt P11142 385-646); assay: negative staining immunogold EM; RIP3 fibrils with HSPA8-SBD on grids; anti-HSPA8 antibody 1:100, anti-rabbit gold-conjugated antibody; conditions: both partners purified
T1 construct: human HSPA8 C-terminal fragment, residues 385-647 as printed; also called HSPA8-SBD; HSPA8 SBD domain; source: E. coli BL21 (DE3), purified (Ni-NTA, Superdex 200)
T1 sequence (P11142 385-646): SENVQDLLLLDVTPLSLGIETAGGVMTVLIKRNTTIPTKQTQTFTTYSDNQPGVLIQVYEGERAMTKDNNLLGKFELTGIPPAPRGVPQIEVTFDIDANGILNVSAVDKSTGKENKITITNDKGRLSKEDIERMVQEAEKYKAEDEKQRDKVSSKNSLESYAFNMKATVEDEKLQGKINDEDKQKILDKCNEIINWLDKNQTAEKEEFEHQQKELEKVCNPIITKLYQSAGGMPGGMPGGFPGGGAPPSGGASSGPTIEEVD

[3] = molecular target: T2, GST-tagged HSPA8-SBD domain (GST-HSPA8-SBD 385-647) ( (human or mouse cDNA cloned), UniProt P11142 385-646); assay: pull-down; His pull-down on Ni-NTA; His-Sumo-RIP3(388-518)-4A as bait, GST-HSPA8-SBD as prey; mixed 1:1 (50 uM each) for 6 h at 4 C; conditions: both partners purified
T2 construct: The plasmid methods name only 6xHis-Sumo constructs for E. coli; the GST construct is not described there; source: E. coli, purified
T2 sequence (P11142 385-646): as above

B1: RIP1(497-582) (domain or fragment, human, UniProt Q13546 497-582, looked up)
chain: MPSLHNIPVPETNYLGNTPTMPFSSLPPTDESIKYTIYNSTGIQIGAYNYMEIGGTSSSLLDSTNTNFKEEPAAKYQAIFDNTTSL
notes: the reagents paragraph prints 498-582; two first limits printed (497 and 498); also called RIP1_((498-582)); source: recombinant, generated previously
binding result [1]: binds

binding result [2]: binds
B2: hRIP3(388-518) tagged with 6xHis-Sumo (RIP3 fibrils of Fig. 4) (domain or fragment, human, UniProt Q9Y572 388-518, looked up)
chain: SSDSMAQPPQTPETSTFRNQMPSPTSTGTPSPGPRGNQGAERQGMNWSCRTPEPNPVTGRPLVNIYNCSGVQVGDNNYLTMQQTTALPTWGLAPSGKGRGLQHPPPVGSQEGPKDPEAWSRPQGWYNHSGK
notes: human RIP3 residues 388-518; also called RIP3 amyloids; source: E. coli BL21 (DE3), purified (Ni-NTA, Superdex 200)

binding result [3]: binds
B3: His-Sumo-RIP3(388-518)-4A (domain or fragment, human, UniProt Q9Y572 388-518, looked up)
chain: B2 chain with V71A, Q72A, V73A, G74A
notes: human RIP3 residues 388-518 with the RHIM core VQVG replaced by AAAA; also called His-tagged RIP3-RHIM-4A; His-tagged RHIM-4A-containing RIP3 (388-518 aa); source: E. coli, purified

B4: TRIF(677-698) (peptide, UniProt Q8IUC6 677-698, looked up)
peptide: QPLIIHHAQMVQLGLNNHMWNQ
notes: TRIF residues 677-698; source: custom-made by WuXi AppTec
binding result [1]: binds
